# Assay results from paper PMC3469819.
# Legend:
# [1] = molecular target: full-length human CDK9 (residues 1–372) (human) (UniProt P50750)
# [2] = molecular target: full-length human CDK9 (residues 1–372) (human) (UniProt P50750); remark: listed apart in the source
# [3] = molecular target: truncated CDK9 construct CDK9_(330) (residues 1–330) (human) (UniProt P50750)
# Chain of truncated CDK9 construct CDK9_(330) (residues 1–330) (human) (P50750 1-330): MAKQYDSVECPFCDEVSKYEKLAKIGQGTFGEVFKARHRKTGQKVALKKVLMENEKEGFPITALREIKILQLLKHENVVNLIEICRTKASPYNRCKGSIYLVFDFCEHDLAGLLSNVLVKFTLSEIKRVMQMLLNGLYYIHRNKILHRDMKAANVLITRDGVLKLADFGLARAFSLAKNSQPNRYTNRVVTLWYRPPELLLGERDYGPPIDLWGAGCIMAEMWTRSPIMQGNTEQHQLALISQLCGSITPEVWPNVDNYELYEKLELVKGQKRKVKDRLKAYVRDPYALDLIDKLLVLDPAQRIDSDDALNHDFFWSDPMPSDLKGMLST
# Chain of full-length human CDK9 (residues 1–372) (human) (P50750 whole entry, the tested form may be a part): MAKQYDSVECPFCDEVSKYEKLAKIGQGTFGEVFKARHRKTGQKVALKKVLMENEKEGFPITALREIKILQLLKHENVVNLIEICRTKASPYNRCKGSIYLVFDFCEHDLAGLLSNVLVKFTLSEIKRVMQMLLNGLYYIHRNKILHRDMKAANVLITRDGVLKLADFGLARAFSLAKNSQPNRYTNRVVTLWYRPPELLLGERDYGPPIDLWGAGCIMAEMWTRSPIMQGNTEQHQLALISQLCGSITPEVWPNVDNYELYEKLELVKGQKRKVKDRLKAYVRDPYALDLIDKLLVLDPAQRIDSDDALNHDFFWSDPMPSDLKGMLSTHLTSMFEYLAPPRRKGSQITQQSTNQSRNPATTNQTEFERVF
substance,measurement,setting,value
GST-tagged version of the human Pol II CTD (from UniProt P24928 1587-1970) (domain or fragment),"K (M, CTD): overall Michaelis constant for GST-CTD of CDK9FL/cyclin T, from initial rates with both GST-CTD and ATP varied",[1],115 µM
same,"K (M,app) for GST-CTD of the kinase activity of CDK9FL/cyclin T (32P incorporation into GST-CTD, fixed ATP)",[2],24.3 µM
same,"K (M,app) for GST-CTD of the kinase activity of CDK9 (330)/cyclin T (32P incorporation into GST-CTD, fixed ATP)",[3],21.3 µM
